Data as given in patent publication US20250195629A1, “SITE-SPECIFIC BRAIN THERAPEUTICS” (William Marsh Rice University, priority 2023, published 2025).

How the values were obtained:
[1] = previously available approach; cited from earlier work
[2] = Ex vivo BLI of brain sections, retention of unmodified or engineered RLuc8.6; format: in vivo, mouse
Excerpt: (§1) FUS-BBBO—C57BL/6J male or female mice (12-18 weeks of age) were anaesthetized with 2.5% isoflurane in 1.5% O2 and shaved on top of skull using a trimmer. A catheter, made by a 30-gauge needle connected to PE10 tubing, was inserted into the tail vein, affixed in place using tissue glue and then flushed with 10 units (U) mL^−1 of heparin in sterile saline (0.9% NaCl). Subsequently, the mouse was mounted on the RK50 (FUS Instruments) stereotactic platform using the ear bars and bite bar/nose cone. A midline scalp incision was vertically made to expose the skull after disinfecting the site using three alternating scrubs of chlorhexidine scrub and chlorhexidine solution. The locations of Lambda and Bregma were registered in the RK50 software using the guild pointer. Next, sterile ultrasound gel was applied on the surface of skull before placing the ultrasound transducer in a tank, both of which were filled with degassed water. The mice were then sequentially injected via tail vein with purified recombinant protein in PBS buffer and approximately 1.5×10^6 DEFINITY microbubbles (Lantheus) per gram of body weight diluted in sterile saline. Immediately after injections of protein and microbubbles, the mice were insonated using RK-50 FUS system with axial and lateral diameter of 5 mm and 1.2 mm, respectively.
Ex vivo analysis of engineered RLuc8.6—FUS was performed to target three sites in the left hemisphere of C57BL6J mice (n=5 mice per group) immediately after systemic administration of RLuc8.6 (20 mg/mL, 100 mg/kg) or engineered variant (20 mg/mL, 104 mg/kg) and microbubbles by tail vein injection. The dose of engineered RLuc8.6 was increased accordingly based on their molecular weight for injecting the same number of molecules as unmodified RLuc8.6. The control group (n=5 mice) was injected intravenously with the same dose of unmodified RLuc8.6 without FUS. The mice were euthanized using CO2 without perfusion at two time points (2-day and 7-day) after FUS-BBBO procedure. Immediately afterwards, the brains were extracted, washed with ˜20 mL PBS buffer in a 50 mL conical tube for 30 s, and then cut into 2 mm sections without olfactory bulb and brainstem using a coronal Slicer (Invitrogen). The sections were individually transferred into a 6-well glass bottom plate (Cellvis) filled with 2 mL PBS buffer. BLI was performed using an IVIS spectrum imager (Perkin Elmer) immediately after adding 1 mL dissolved CTZ (cat #303-INJ, Nanolight Technology) with a final concentration of 10 μM. The parameters used here were similar as in vivo BLI with is of exposure time and field of view C. The average radiance (p/s/cm^2/sr) of each brain section was quantified with the Living Image software (Caliper Life Sciences) and summed to compare the activity retention of RLuc8.6 among different groups.

[3] = Mouse body weight analysis; format: in vivo; set-up: key to Significance of body weight difference between day 0 and 3 days after systemic administration: ns (not significant); conditions: for Weight loss: day 0 vs 2 days after injection, RLuc8.6 100 mg/kg, AADC-IKVAV 250 mg/kg
Experimental: To assess the potential impact of the RAID approach on the body weight of the mice involved in behavior analysis (n=11 mice for the FUS alone+L-DOPA group and n=14 mice for the FUS+AADC-IKVAV (SEQ ID NO: 23)+L-DOPA group), their body weight was recorded on a daily basis before and after FUS-BBBO administration. […] The body weight of the additional group of mice was also recorded in a similar manner; however, unintentionally four mice were omitted from weighing on the day following the AADC-IKVAV (SEQ ID NO: 23) injection. Similarly, the mouse body weight was recorded before and after the intravenous injection of unmodified or engineered RLuc8.6, which is related to the study presented in FIG. 5.

[4] = In vivo bioluminescent imaging (BLI) of RLuc8.6 in the head region; set-up: species or system mouse
Excerpt: as §1
In vivo BLI—Two groups of mice (n=7 mice for FUS+RLuc8.6 group and n=3 mice for FUS alone group) underwent FUS-BBBO targeting one site at left striatum immediately after i.v. injection of RLuc8.6 (2 mg/mL, 8 mg/kg) or equivalent volume of PBS buffer. The third group of mice (n=6) was injected intravenously with the same dose of RLuc8.6 without FUS-BBBO procedure. BLI was conducted 1 h, 24 h, 48 h and 96 h after FUS insonation with an IVIS spectrum imager (Perkin Elmer). […] The bioluminescence signal was quantified by calculating the average radiance (p/s/cm^2/sr) in the head region of view C imaging using the Living Image software (Caliper Life Sciences).

[5] = Immunohistochemical analysis of RLuc8.6 after FUS-BBBO delivery; format: in vivo, mouse; conditions: 150 mg/kg i.v., FUS-BBBO 4 sites left striatum, 1 h post-delivery
Excerpt: as §1, with “The mice were then sequentially injected via tail vein with purified recombinant protein in PBS buffer and approximately 1.5×10^6 DEFINITY microbubbles (Lantheus) per gram of body weight diluted in sterile saline. Immediately after injections of protein and microbubbles, the mice were insonated using RK-50 FUS system with axial and lateral diameter of 5 mm and 1.2 mm, respectively.” left out
Histological imaging—All histological images were obtained using a fluorescence microscope (BZ-X810, Keyence). To evaluate RLuc8.6 retention, as depicted in FIG. 2b and FIG. 3, we acquired fluorescence images of striatal sections using a ×4 objective in DAPI (nuclei) and far-red (RLuc8.6) channels. […]

[6] = FUS-BBBO + protein i.v., RLuc8.6-IKVAV 104 mg/kg

Row | Molecule | time the drug lasts in the brain after FUS-BBBO delivery [1] | enzyme function within the brain parenchyma ([2]; 7-day timepoint) | Significance of body weight difference between day 0 and 3 days after systemic administration ([3]; FUS-BBBO + protein i.v.) | weight loss on day 3 compared to day 0 ([3]; FUS-BBBO + protein i.v.) | Weight loss [3, 6] [%] | Significance of body weight difference between day 0 and 3 days after systemic administration ([3]; protein i.v. alone without FUS) | Weight loss ([3]; protein i.v. alone without FUS) [%] | IVIS enzyme levels vs controls ([4]; 8 mg/kg i.v., from 24 hours after FUS-BBBO onwards) | bioluminescence signal averaged over the entire brain, FUS+RLuc8.6 vs RLuc8.6 alone without FUS ([4]; 8 mg/kg i.v., one FUS site left striatum, 1 h after FUS-BBBO, CTZ 3.5 mg/kg i.p.) | upper threshold of enzyme concentration increase within the targeted site vs untargeted controls ([4]; calculated from volume of single BBB opening site (1% of brain volume)) | average fluorescence intensity of RLuc8.6 immunostaining, FUS target region vs untargeted contralateral site [5] | mean activity improvement over unmodified RLuc8.6 ([2]; 2 days after FUS-BBBO, sum of average radiance in five sections) | bioluminescence vs RLuc8.6 alone control at 7 days ([2]; 7 days after FUS-BBBO) | level of bioluminescence vs control group without applying FUS ([2]; FUS-BBBO delivery, stated with FIG. 5e (7 days)) | duration of retention in the brain ([2]; after a single session of FUS-BBBO delivery) [week]
1 | NCCCC(=O)O [GABA] | approximately 100 minutes |  |  |  |  |  |  |  |  |  |  |  |  |  | 
2 | RLuc8.6: recombinant His-tagged luciferase, model protein enzyme converting coelenterazine into coelenteramide; CDS SEQ ID NO: 17 (protein, His tag; misc_feature 1..1032 Synthetic: RLuc8.6) MRGSHHHHHHGMASMTGGQQMGRDLYDDDDKDPMASKVYDPEQRKRMITGPQWWARCKQMNVLDSFINYYDSEKHAENAVIFLHGNATSSYLWRHVVPHIEPVARCIIPDLIGMGKSGKSGNGSYRLLDHYKYLTAWFELLNLPKKIIFVGHDWGSALAFHYAYEHQDRIKAIVHMESVVDVIESWMGWPDIEEELALIKSEEGEKMVLENNFFVETLLPSKIMRKLEPEEFAAYLEPFKEKGEVRRPTLSWPREIPLVKGGKPDVVQIVRNYNAYLRASDDLPKLFIESDPGFFSNAIVEGAKKFPNTEFVKVKGLHFLQEDAPDEMGKYIKSFVERVLKNEQ |  | remain functional | ns | no significant weight loss | 3.4±0.7 | ns | 2.1 ± 0.6 | statistically indistinguishable from controls | 2.2(±0.3) fold | approximately 220 fold | significantly higher immunostaining signal |  |  |  | 
3 | RLuc8.6-IKVAV: fusion of RLuc8.6 and ECM-mimicking peptide IKVAV (SEQ ID NO: 23) via GS linker; CDS SEQ ID NO: 18 (protein, misc_feature 1..1095 Synthetic: RLuc8.6-IKVAV) MRGSHHHHHHGMASMTGGQQMGRDLYDDDDKDPMASKVYDPEQRKRMITGPQWWARCKQMNVLDSFINYYDSEKHAENAVIFLHGNATSSYLWRHVVPHIEPVARCIIPDLIGMGKSGKSGNGSYRLLDHYKYLTAWFELLNLPKKIIFVGHDWGSALAFHYAYEHQDRIKAIVHMESVVDVIESWMGWPDIEEELALIKSEEGEKMVLENNFFVETLLPSKIMRKLEPEEFAAYLEPFKEKGEVRRPTLSWPREIPLVKGGKPDVVQIVRNYNAYLRASDDLPKLFIESDPGFFSNAIVEGAKKFPNTEFVKVKGLHFLQEDAPDEMGKYIKSFVERVLKNEQGGSGSSGGSGGSGGSGIKVAV |  |  | ns | no significant weight loss | 3.2±0.8 |  |  |  |  |  |  | 2.3(±0.3) fold | significantly different | 113(±33) fold | 1
